# Target: yNup100FG (yeast) (UniProt Q02629)
# Assay: high-speed atomic force microscopy
# Sequence of UniProt Q02629 (Q02629 whole entry): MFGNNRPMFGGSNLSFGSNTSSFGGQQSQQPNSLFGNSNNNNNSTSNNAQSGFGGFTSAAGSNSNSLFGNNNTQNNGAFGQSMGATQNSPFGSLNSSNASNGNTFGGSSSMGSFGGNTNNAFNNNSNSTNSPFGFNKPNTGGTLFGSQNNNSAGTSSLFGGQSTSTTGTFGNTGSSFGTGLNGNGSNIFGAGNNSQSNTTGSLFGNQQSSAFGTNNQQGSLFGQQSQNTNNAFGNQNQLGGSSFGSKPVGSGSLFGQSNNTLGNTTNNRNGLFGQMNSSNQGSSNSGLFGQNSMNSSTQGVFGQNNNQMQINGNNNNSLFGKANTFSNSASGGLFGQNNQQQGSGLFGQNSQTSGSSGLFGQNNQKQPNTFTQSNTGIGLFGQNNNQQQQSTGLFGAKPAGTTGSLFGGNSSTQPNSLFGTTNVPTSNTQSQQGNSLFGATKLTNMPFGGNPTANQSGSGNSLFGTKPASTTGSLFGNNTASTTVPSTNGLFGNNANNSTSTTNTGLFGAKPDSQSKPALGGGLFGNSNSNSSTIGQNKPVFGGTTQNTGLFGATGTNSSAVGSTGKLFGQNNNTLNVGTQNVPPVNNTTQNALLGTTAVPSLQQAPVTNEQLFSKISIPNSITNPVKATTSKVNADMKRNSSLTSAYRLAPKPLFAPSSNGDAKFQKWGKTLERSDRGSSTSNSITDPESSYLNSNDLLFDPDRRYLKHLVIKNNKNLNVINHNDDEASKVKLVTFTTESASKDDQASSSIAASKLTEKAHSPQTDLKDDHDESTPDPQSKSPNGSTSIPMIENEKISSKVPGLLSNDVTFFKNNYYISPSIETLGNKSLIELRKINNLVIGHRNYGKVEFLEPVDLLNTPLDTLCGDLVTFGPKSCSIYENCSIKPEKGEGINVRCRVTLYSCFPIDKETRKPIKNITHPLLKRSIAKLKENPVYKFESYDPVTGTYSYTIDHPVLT
substance,measurement,value
Yeast Kap95 (recombinant) (from UniProt Q06142 1-861) (natural protein),height increase of the hydrogel due to Kap95 binding,31.2 nm

# Reference: PMC10103940
